Biological target: IrmA secreted from E. coli MG1655 carrying a plasmid encoding irmA (strain MS5667) (Escherichia coli)
Assay: native gel or EMSA

## IrmA secreted from E. coli MG1655 carrying a plasmid encoding irmA (strain MS5667) (natural protein)
  stoichiometry N: 2
